From US10006009B2, “Codon-optimized gene for mutated shrimp luciferase and method for use thereof” (JNC CORPORATION, priority 2013, dated 2018) come the findings set out here.

The test system of this series is CHO-K1 cells. The series is described as follows: Comparison of expression between nanoKAZ and nanoLuc genes in CHO-K1 cells. In kind it is cell-based, Chinese hamster. The source says:
In order to compare the gene expression efficiency between the nanoKAZ gene and the nanoLuc gene in the cultured cell system, an expression vector that was different only in the nanoKAZ gene sequence and the nanoLuc gene sequence was constructed. The expression vector constructed was transfected to CHO-K1 cells. Then, the expression level of luciferase activity was compared by the following procedure. In the nanoLuc gene, the gene sequence described in Hall et al. (2012) ACS Chem. Biol. […] was chemically synthesized and provided for use.
The vector was introduced into CHO-K1 cells by the method described in EXAMPLE 3. After incubation for 23 hours, the culture medium and the cell extract were recovered. The luminescence activity in the culture medium and the cells was measured by the method described in EXAMPLE 4, using coelenterazine as a light-emitting substrate.

B1: nanoKAZ: mutated catalytic 19 kDa domain protein of Oplophorus luciferase encoded by the codon-optimized gene (SEQ ID NO: 1) (protein)
chain: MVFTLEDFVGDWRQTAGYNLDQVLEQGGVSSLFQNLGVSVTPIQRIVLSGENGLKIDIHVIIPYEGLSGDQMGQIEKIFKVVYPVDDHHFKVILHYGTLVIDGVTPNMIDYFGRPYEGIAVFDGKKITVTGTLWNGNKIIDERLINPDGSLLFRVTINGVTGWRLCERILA
For B1, the “luminescence activity relative to nanoLuc” value (with signal peptide, secreted into the culture medium) is reported as “about 1.4 fold”.

B2: nanoKAZ gene: codon-optimized gene for the mutated catalytic 19 kDa domain of Oplophorus luciferase, SEQ ID NO: 2 (nucleic acid)
DNA: ATGGTCTTCACCCTGGAGGACTTCGTCGGCGACTGGAGACAGACCGCCGGCTACAACCTGGACCAGGTCCTGGAGCAGGGCGGCGTCAGCAGCCTGTTCCAGAACCTGGGCGTCAGCGTCACCCCCATCCAGAGAATCGTCCTTAGCGGCGAGAACGGCCTGAAGATCGACATCCACGTCATCATCCCCTACGAGGGCCTGAGCGGCGACCAGATGGGCCAGATCGAGAAGATCTTCAAGGTCGTCTACCCCGTCGACGACCACCACTTCAAGGTCATCCTGCACTACGGCACCCTGGTCATCGACGGCGTCACCCCCAACATGATCGACTACTTCGGTAGACCCTACGAGGGCATCGCCGTCTTCGACGGCAAGAAGATCACCGTCACCGGCACCCTGTGGAACGGCAACAAGATCATCGACGAGAGACTGATCAACCCCGACGGCAGCCTGCTGTTCAGAGTCACCATCAACGGCGTCACCGGCTGGAGACTGTGCGAGAGAATCCTGGCCTAA
modifications: synthetic DNA
Regarding B2, where the note is “without secretory signal, in the culture medium and the cells”, the “expression relative to the nanoLuc gene” value was “about 2 fold”.
